# PMC7319358
# Target: Cy5UbPRG fluorescent activity-based probe (UniProt P0CG48)
substance,measurement,value
recombinant DUB2 (enzyme),percent of DUB2 reacted with the probe,85%
